Our source for the IC50 and Kd values is publication PMC2690590, “Functional recombinant MHC class II molecules and high-throughput peptide-binding assays” (Immunome Research, 2009).

What all share (experiment): AlphaScreen or HTRF
In general terms: Alpha assays give light when donor and acceptor beads are brought close together.

Assay [1] addresses DR2a (DRA*0101/DRB5*0101) with non-biotinylated β chain, competitive LOCI assay (human).
Assay [2] concerns the target DR1GrpE: DR1 α chain 1–181 and β chain 1–190 fused C-terminally to GrpE, not biotinylated (human).
Assay [3] has as its target DRB1*0813: DRA*0101/DRB1*0813 (human).
Assay [4] deals with DR2a (DRA*0101/DRB5*0101), biotinylated, direct LOCI assay at pH 6 (human).

Broadly, the IC50 is the concentration needed to halve the response being measured. A lower IC50 goes with inhibition by little substance. What is called Kd is the constant that tells how readily two partners part at equilibrium. Take Flu HA1194-202 peptide […]: the figures for the IC50 in assay [1] and in assay [2] were 529 nM and 42 nM, respectively. The Kd in assay [3] is 276 nM; in assay [4], 167 nM.
